According to patent publication US20210180049A1 (CHUGAI SEIYAKU KABUSHIKI KAISHA, priority 2013, published 2021):

B1: SMB0002: rabbit B cell cloning antibody binding adenosine and ATP; heavy chain SEQ ID NO: 30, light chain SEQ ID NO: 31 (antibody, listed as Oryctolagus cuniculus)
heavy: CQSVEESGGRLVTPGTPLTLTCTVSGIDLSNYAMGWVRQAPGKGLEWIGIIGADSSTWYPSWVKGRFTISKTSTTVDLKMTSLTTEDTATYFCARGRFVGYTNAFDPWGPGTLVTVSS
light: AQVLTQTPSSVSAAVGGTVTISCQSSQSVWNNNYLSWYQQKPGQPPKLLIFDASTLASGVPSRFSGRGSGTQFTLTISGVQCEDAATYYCHGSYANSGWYDNAFGGGTEVVVK
B2: ATNLSA1-4_D12: ATP/adenosine-binding antibody; heavy-chain variable region SEQ ID NO: 48, light-chain variable region SEQ ID NO: 49 (antibody, listed as Homo sapiens, V domains shown)
VH: QVQLQESGGDLVKPGGFLRLSCAASGFTFNTYTMNWVRQAPGKGLEWLSSISSRSNYINYADSVKGRFTISRDNAKNSLYLQMNSLRAEDTAVYYCARFGRKGDLNWVFDYWGQGTLVTVSS
VL: QSALTQPPSASGSPGQTVTISCTGTSSDVGGYNYVSWYQQHPGKAPKLMIYEVSKRPSGVPDRFSGSKSGNTASLTVSGLQAEDEADYFCSSYAGSNNVVFGGGTKLTVL

Legend:
[1] = SPR binding of SMB0002 to ADP; settings: Biacore, NaCl concentration 600 mM; read-out: KD of SMB0002 toward ADP
Description: Binding to ADP was assessed by a method similar to the measurement method using Biacore described in Example 3-2, except that the NaCl concentration was changed to 600 mM. Binding of SMB0002 was assessed at ADP concentrations of 2000, 1000 (duplicate), 500, 250, 250, 125, 62.5, and 31.3 μM.

[2] = SPR (Biacore T200) binding of SMB0002 to adenosine; settings: Biacore T200, 25° C., antibody captured on protein A; read-out: KD of SMB0002 toward adenosine
Description: Using Biacore T200 (GE Healthcare), the antibody SMB0002 obtained by the B cell cloning method was analyzed for its interaction with adenosine in antigen-antibody reaction. Sensor chip CM5 (GE Healthcare) was immobilized with an appropriate amount of protein A (Invitrogen) by amine coupling. Antibodies of interest were captured by the chip to allow interaction to adenosine as an antigen. The running buffer used was 50 mmol/1 TrisHCl, 150 mmol/1 NaCl, 0.02% (w/v) Tween20, pH 7.6. All measurements were carried out at 25° C. The antigens were diluted using the running buffer.
Then, running buffer was run at a flow rate of 30 μL/min for four minutes and dissociation of the antigen from the antibody was observed. Next, 10 mmol/L glycine-HCl, pH 1.5, was loaded at a flow rate of 30 μL/min for 30 seconds to regenerate the sensor chip. Kinetic parameters such as the association rate constant ka (1/Ms) and the dissociation rate constant kd (l/s) were calculated based on the sensorgrams obtained by the measurements. The dissociation constant KD (M) was calculated from these constants. Each parameter was calculated using the Biacore T200 Evaluation Software (GE Healthcare).

[3] = competitive ELISA of 2′-Adenosine-PEG-Biotin-binding clones with adenosine and ATP; settings: 50 nM 2′-Adenosine-PEG-Biotin with 500 μM adenosine or ATP; absorbance at 405 nm
Description: To immobilize the antibodies, the plate was allowed to stand for one hour or more at room temperature. After the antibodies diluted with PBS were removed from each well, TBS containing 1% BSA was added thereto and the plate was allowed to stand for one hour or more. Then, the TBS (pH 7.4) containing 1% BSA was removed from the plate. 2′-Adenosine-PEG-Biotin diluted to 50 nM with PBS, a mixture of 2′-Adenosine-PEG-Biotin and adenosine diluted to 50 nM and 500 μM respectively with PBS, a mixture of 2′-Adenosine-PEG-Biotin and ATP diluted to 50 nM and 500 μM respectively with PBS, or PBS alone was added to the plate. The plate was allowed to stand at room temperature for one hour, and then washed three times with 80 μl of PBS containing 0.05% Tween-20. Then, Streptavidin-HRP (Thermo fisher scientific) diluted 20000 times with PBS was added to each well, and the plate was allowed to stand for one hour or more at room temperature. After the plate was washed three times with 80 μl of PBS containing 0.05% Tween-20, a chromogenic substrate (ABTS peroxidase substrate) was added to each well. After the plate was incubated for one hour, color development in the solution of each well was assessed by measuring absorbance at 405 nm using SpectraMax from Molecular Device.

[4] = SPR (Biacore T200) binding of SMB0002 to ATP; settings: Biacore T200, 25° C., antibody captured on protein A/G; read-out: KD of SMB0002 toward ATP
Description: Biacore T200 (GE Healthcare) was used to analyze interaction in the antigen-antibody reaction with ATP. The antibody of interest was captured onto protein A/G (Invitrogen) immobilized in an appropriate amount onto Sensor chip CM5 (GE Healthcare) by the amine coupling method, and ATP which is the antigen was allowed to interact. The running buffer used was 10 mmol/L ACES, 150 mmol/L NaCl, 0.05% (w/v) Tween 20, pH 7.4. All measurements were carried out at 25° C. The antigen was diluted with running buffer.
Then, running buffer was run at a flow rate of 20 μL/min for three minutes and dissociation of the antigen from the antibody was observed. Next, 10 mmol/L glycine-HCl, pH 1.5, was injected at a flow rate of 30 μL/min for 30 seconds to regenerate the sensor chip. Kinetic parameters such as the association rate constant ka (1/Ms) and the dissociation rate constant kd (l/s) were calculated based on the sensorgrams obtained by the measurements. The dissociation constant KD (M) was calculated from these constants. Each parameter was calculated using the Biacore T200 Evaluation Software (GE Healthcare).

[5] = SPR binding of SMB0002 to AMP; settings: Biacore; read-out: KD of SMB0002 toward AMP
Description: Binding of SMB0002 was assessed at AMP concentrations of 500, 250 (duplicate), 125, 62.5, 31.25, 15.625, and 7.8125 μM.

[6] = phage ELISA for binding to ATP-PEG-biotin
Description: (§1) Next, for the purpose of confirming to which antigen of 2′-adenosine-PEG-biotin, 5′-adenosine-PEG-biotin, and ATP-PEG-biotin these clones have binding ability, the purified phages diluted with TBS were subjected to ELISA by the following procedure. A StreptaWell 96 microtiter plate (Roche) was coated at room temperature for one hour with 100 μl of TBS containing a biotin-labeled antigen (2′-adenosine-PEG-biotin, 5′-adenosine-PEG-biotin, or ATP-PEG-biotin). After the antigens were removed by washing each well of the plate with TBST, the wells were blocked with 250 μl of 2% skim milk/TBS for one hour or more. 2% skim milk/TBS was removed, and then the prepared, purified phages were added to each well. The plate was allowed to stand at room temperature for one hour to allow binding of antibody-displaying phages to antigens in each well. After TBST wash, a HRP-conjugated anti-M13 antibody (Amersham Pharmacia Biotech) diluted with TBS was added to each well. The plate was incubated for one hour. Following TBST wash, the TMB single solution (ZYMED) was added to each well. The chromogenic reaction in the solution of each well was terminated by adding sulfuric acid. Then, the developed color was assessed by measuring absorbance at 450 nm.

[7] = SPR (Biacore T200) binding of D12 and ATNLSA1-4_D12 variants to ATP; settings: Biacore T200, 15° C., 500 mM NaCl
Description: (§2) Sensor chip CM5 or CM4 (GE Healthcare) was immobilized with an appropriate amount of protein A (Life technologies) by amine coupling. The antibody of interest was captured by the chip to allow interaction with ATP (Wako), adenosine (Wako), or ADP (adenosine diphosphate) (Wako) as an antigen. The running buffer used was 50 mM Tris-HCl (Takara, T903), 500 mM NaCl, 0.01% (w/v) Tween20. The antigen was allowed to interact for 30 seconds at a flow rate of 30 μl/min, and was dissociated for 30 seconds. The interaction with the antigen was assessed at 15° C. The antigen was diluted using the same running buffer.
(§3) The dissociation constant KD (M) was calculated based on the association rate constant ka (1/Ms) and dissociation rate constant kd (l/s), both of which are kinetic parameters calculated from the sensorgram obtained by the measurement. Alternatively, the dissociation constant KD (M) was calculated using steady state analysis. Each parameter was calculated using the Biacore T200 Evaluation Software (GE Healthcare).
Based on the assay result, the affinity of each variant for ATP was calculated as a KD value. […]
It was determined that amino acids substituted at the sites could be included in a library (flexible residues to be introduced into a library).

[8] = competitive phage ELISA with ATP; type: binding; settings: ATP from equal amount up to 10000 times that of the antigen
Description: ATNLSA1-4_D12 and PF1 were each diluted with TBS and subjected to ELISA by the following procedure.
A StreptaWell 96 microtiter plate (Roche) was coated at room temperature for one hour with 100 μl of TBS containing biotin-labeled antigens (a mixture of 5′-adenosine-PEG-biotin and ATP-PEG-biotin). After the antigens were removed by washing each well of the plate with TBST, the wells were blocked with 250 μl of 2% skim milk/TBS for one hour or more. 2% skim milk/TBS was removed, and then the prepared, purified phages were added to each well. The plate was allowed to stand at room temperature for one hour to allow binding of the antibody-displaying phages to the antigens in each well. […] For the competition of the immobilized antigen with ATP, the plate was allowed to stand at room temperature for one hour. Then, after TBST wash, an HRP-conjugated anti-M13 antibody (Amersham Pharmacia Biotech) diluted with TBS was added to each well. The plate was incubated for one hour. Following TBST wash, the TMB single solution (ZYMED) was added to each well. The chromogenic reaction in the solution of each well was terminated by adding sulfuric acid. Then, the developed color was assessed by measuring absorbance at 450 nm.

[9] = SPR (Biacore T200) binding of D12 and variants to adenosine; settings: Biacore T200, 15° C., corrected with 20 μmo1/1 ADP, Formula 2
Description: as §2, §3
To calculate the KD for adenosine, the binding response was assessed at various concentrations of adenosine in the presence or absence of 20 μmo1/1 ADP. In addition, the binding response was separately assessed in the presence of 20 μmo1/1 ADP. […]

[10] = SPR (Biacore T200) binding of D12 to ADP; settings: Biacore T200, 15° C., 500 mM NaCl
Description: as §2, §3

[11] = phage ELISA for binding to 5′-adenosine-PEG-biotin
Description: as §1

Description for Tm measurement by DSC: Measurement by DSC was carried out by a method known to those skilled in the art.
DSC measurement was carried out by a method known to those skilled in the art.

Molecule | Kd [1] | Kd [2] | binding to 2′-Adenosine-PEG-Biotin on adding excess amounts of adenosine and ATP [3] | Kd [4] | Kd [5] | Tm (Tm measurement by DSC) | binding to ATP-PEG-biotin [6] | Kd [7] | binding to biotin-labeled antigen with ATP as competitor [8] | Kd [9] | Kd [10] | binding to 5′-Adenosine-PEG-biotin [11]
B1 | 240 µM | 0.015 µM | inhibited | 10 µM | 59 µM |  |  |  |  |  |  | 
B2 |  |  |  |  |  | 74.37 °C | ability to bind | 8.5 µM | inhibited in an ATP concentration-dependent manner | 1100 µM | 0.25 µM | ability to bind
